Experimental data as given in a protein production outcome set (Wang et al. 2014).

Test: label from the status in PepcDB records
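Note: failed if final PepcDB status was selected cloned or expressed and not failed if soluble or beyond.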

Row | Sequence | protein production
1 | GRPDGPVRTKKLKRGRPGRKKKKVLGCPAVAGEEEVDGYETDHQDYCEVCQQGGEIILCDTCPRAYHLVCLDPELDRAPEGKWSCPHCEKEGVQ | failed
2 | MKQILTYLLFIWILLPLKAEEKIYTVDNIPKVHLQNKMQYVCNPAGILSQQACDEIDAMLYALEQQTGIETVVAIVPSIGDKDCFEFSHQLLNQWGVGKKGKDNGLVILLVTDQRCIQFYTGYGLEGILPDAICKRIQMQEMIPYLKKGEWNQGMLAGVKAVCQRLDGSMVNDDEGRGEEGISVSMLLVVILGFITIAGVVGTLAVRASTRCPKCGKHQLQRSSTKLISNRNGVKTEDIIYTCRNCGHTVVRRQQSYDDNYRGRGGGGPFIGGFGGGSFGSGGGGGFSGGSFGGGSGGGGGAGSRFLEHHHHHH | failed
3 | MILLTYLIGILIGLSLTAPPGPVNSVISTESMKSKAHGVSVGAGAMTADLVFFVIVFRFGAFIPVLALHALYLAGAVLLLYISYSVLKSKISRRTRKGNYLVGLTMGITNPFQILWWMTVGLFFIRYFHIASIAGLFTGIIIWILSFPFVMNKYARRFERYVKIFSFAVLFSFAIYLLYSGVVYFLR | failed
4 | MIFKKEPKRYTVEDTIPYLRLLKSGICQLDEKHFSKSIAFQDINYQLALDEDRDLIFNQFANFLNSFDPSISIEFSYVNQLGRNEEMKSAIQIPDKKDGFDDIRFEFREMLKSQIVKGNNGLKKSKYVTFTVEADNLEQATSKLERLEIDILSNLKSMGVRAESLNGEERLKILHDVLNPNKTFEFSYKDLKKRESTKTYIVPDEFNFTPSRYFKFGKFIGATSHFQILASELSDRMLSEFLDIDDNINISFHIRAIDQSEAIKMVKRKNTDIDKMKIEENKKAVRSGYDMDILPSDLITYGEDVKSLLKDLQTRDERMFVVSIVFMNFARTVQKLDNTIAQISSIANKHNCKLKRLDHSQEQGLVSMLPLGVNKIEIDRGLTSSSTAVFMPFTTEELFINSSNSLYYGLNALSHNLIMADRKKLKNPNGLILGTPGSGKSFSAKREMANAILVTDDDVIICDPEGEYGNLVRQFKGEVIKVSSKSKDYLNPLDINMNYGDGDAPLKDKANFIMSMLELVVGGSGLTAEEKSVIDRCLPKIYEKYFEHPTPDNMPILQDLYDMLKGQEEKVGKKLATEMEIYVSGSLNVFNHRSNVDLNKKLLCFDIKELGSQLKKIGMLVIQDQVWNKVSQNRGNKATRYYIDEFHLLLKDEQTASYSVEIWKRFRKWGGIPTGITQNVKDLLMSKEIENIFDNTDFVLMLNQASGDREILARKLKISLPQLRYVTNSNEGEGLLFFGNTIVPFLDKFPKDTILYQKMTTKPEEVRLEHHHHHH | not failed
5 | ILIQINPLDNVAIVVNDHGLEKQTVIEEYQLTLVDDVPQGHKVLLKALKKDEAIIRYGEIIGYANADLEAGRWVNESVTRMPEA | failed
6 | MERPLESYKKEAAHAAIAYVQDGMVVGLGTGSTARYAVLELARRLREGELKGVVGVPTSRATEELAKREGIPLVDLPPEGVDLAIDGADEIAPGLALIKGMGGALLREKIVERVAKEFIVIADHTKKVPVLGRGPVPVEIVPFGYRATLKAIADLGGEPELRMDGDEFYFTDGGHLIADCRFGPIGDPLGLHRALLEIPGVVETGLFVGMATRALVAGPFGVEELLP | not failed
7 | MENIQDSVSEYTKDSAQKIDTDALYHEQMLKALYAGFGIRFCAFIIDLLIIFGVHSLILKPIYHFTNLDSAKLWIDYFSVGHLLDALVFYLYFVLMTKYFKQTLGKMICNIRVERMDRQQLTWTDVLFREWIGRIISGVFANLPYLVTIFTKKHRGIHDYFADTVVIKNKFEKFFYLK | failed
8 | LDHITVVTADGKVALNQIGQISMKSPQVILVNMASFPECTAAAIKAIRESGMNLNPEVEGTLIRVPIPKVT | not failed
9 | MHGIDLHTHSNISDGTLSPSCLVDAAIACGIHTLALTDHDTMDGLETAIQQAQGHDIQIISGAEISSQWSRPNTKKAYGVHIVALNMQNPEPLLDALVIQKNIRAERAQQICQILQQCTGQDIYTDVLLKVEGEPDRITRTHIAKALVEKEIVARPQQAFDRFLKEGKRAYVKFDGLNLADTIRIIHESEGFAILAHPTRYDLSSTNVRYLIELFAKMGGDAVELPPSVDPVSTRQMIDRIIQQFDLKVSIGSDFHG | failed
10 | LTESEERWRLALDAANLGFWDWNVLTAKVVWSENHERLFGLVSGSFDGTYETFLSCVHPEDRESVIQVIGVCLENKTDYYDEFRIVWPDKSIHWIAAKGRFFYNDQGQPVRMIGVCMDITKSKRTEEN | failed
11 | MQTFFQDTMATPLGELLIIADENNHLRAVEWREYEDGLFRSLNRSYRNDPFSLQSRHNPGGLTDSLQRYFDGELAIIDTLPVASVGTEFQQQVWRELRRIPCGEITTYGELATLLGRTGAARAVGMANGSNPISIVVPCHRVIGTGGALTGYAGGIHRKQWLLAHEGYLPHQNSLPL | failed
12 | MQYVMSIIGILVVLGLCFALSNNKSKINFRAIAIMIGFQILIGWFMFGTKIGQQIIIFIGKVFNKLIKLGTTGVDFLFNGIQRDFVFFLNVLLIIVFFSALLSIFSYLGVLPFIVRVVGGAISKITGLPRVESFHAVNSVFFGSSEALIVIKNDLQHFNKNRMFIICCSAMSSVSASVTASYVMMLDAKYVLAALPLNLFSSLIVCSLLTPVDTKKEDEVIQKFDRTLFGDSFIGAMINGALDGLKVAGIVAALMIAFIGVMEVVNYVISAASGAMGHAVTLQQIFGYVLAPFAFLMGIPAQDIIPAGGIMGTKIVLNEFVAILDLKGVAATLSPRTVGIVTVFLISFASISQIGAIVGTIRALSEKQGSVVSKFGWKMLFASTLASILSATIAGLFI | failed
13 | MSNVTAEQKKEVKGRGFLPSRDGEHFAARIITVNGVINASQAKKIAEAAEKFGNGQLAFTTRLTVELPGVKFEDIEALSEFIASENLITGGTGSRVRPVVACKGTVCVHGLADTQALAAEIHEEFYKNWYDVKLPHKFKIGVGGCPNNCIKPDLNDLGIVGQRVPDYDSELCVGCKKCAVVEVCPVKAAKLTDKGKLEIDSNLCNNCGKCIESCNFDSIEEKESGYKVYIGGKWGKSVRPGTQIDRLFSKEELMTLIEKAILLFREQGNTGERFGITIDRIGADKFIEMLLSDEVLERKEEILEALLHLTGGAVCLEHHHHHH | failed
14 | MKKTVIKETERLLILLGATGLLSGIGIVMNGTPITAQATTTTTQTQGILHSGDFGTSHWYISDDLTLHIGAGTFANLSNSQSAPPWTAYGDQVAKIVIEGPVTLAPNSRELFGYLGATSIEGLDQIDASHVTNFEFAFFGIQVPNLDLTSWDVHNVTDAGFMFMRAQSDVINLSGWQMPKLKLAQWMFMLAPRVHELDLAGINFRNADATRALMNMNLTVIHLGPDSLLTGTNLQPFHNDAYQDMWQDIGDGTTEAPTGKNRYTYSQLMAEFKGAAPYTYVRAKNPGQPVTVQYLDQLNQALVKADTLTGYYGDTFTAQAKTFAGYHVTSVDGEPTGTFGSRPYTVTYHYAVDEKNQQSLLGEDATITVGDPAPTSETFKAKATDKDGQALPVVVDLSQATLNQPGRYPVTLTTRDGQSKAVTLTVKAADESSSSSSSSSIDRSHSSSTPTSSSNSDDSLSSGDLISGGDTDLAVFKGQAVYATKTVRLYQRPTFKASQVRARYAKQSRTKRPMFVVIGSAHSKHHALRFKVRDVNHHSKTAGKVGYITAKKAYVTNVYYQRTYTRVTVINPQGVNGYRTRKLTGKTRHYRRGQTLRVKRLVRYHLTTRYVLTNGRYVTTNKKLVKVQQNSVQQSTQHSAAVTTRTIK | failed
15 | MILSNYPLRDRKDSTMGSKTKIVVIRCKELIAGIILSVIALAILALIVISLMNRNTHDTTPPSGRYTAGVYSSSVILNGNPVDIRVTVDEDNINNIEMVNISDSVTTMYPLIQNSFEEIKSSVIANGGVEGVTYSSENKYTSVMILKAIENALDKCRTY | failed
16 | MDMKKHGLSIGINRIESVFFVTLKAIGTLTHEDYLVITPMLEGALSQVDQPKVSLFLDATELDGWDLRAAWDDLKLGLKHKSEFERVAILGNKDWQEWAAKIGSWFIAGEIKYFEDEDDALKWLRY | not failed
17 | MFVVANIVVGIAKILDAILNLYFWVIIAAAVLSWVNPDPYNPVVRVVRNLTEPVFYRVRKWLPFTYVGGLDLSPLVVLLGIQIINSVLVQSLYQLAVRLY | failed
